Experimental data from US20040209808A1 (published 2004).

Molecular target: T1, HGPRBMY3 (human, UniProt Q9H1C0 1-372)
T1 construct: on CHO-NFAT/Galpha15 cells for the reporter assay; also called GPCR19; GPR92; not shown: its amino
Assay: cell-based phage-display panning on CHO-K1 cells transfected with HGPRBMY3; sequencing of eluted phage
Experimental: On the day of panning, growth medium was discarded and cells were washed with 10 ml PBS by allowing the buffer to flow over the cells. The PBS was removed and 10 ml Tris-EDTA detaching buffer (Gibco Cat. # 13150-016; no trypsin) was added for 2 min. Plates were tapped and/or pipetted up and down to detach cells. This was done quickly to minimize the exposure of the cells to this reagent. Cells were pelleted by centrifugation at 3K, and then washed with 20 ml PBS. Cells were resuspended cells in PBS with 2% milk blocking agent plus protease inhibitor (EDTA-free; Roche Cat. # 1 873 580). For each library, cell suspensions of ˜500 μl were used. Cells were blocked for 30-60 min with gentle rocking at room temperature. The integrin-coated wells were washed 3×in PBST, then blocked with 2% BSA in PBS for 30 min or more. To preadsorb against integrin, input phage was added to the integrin-coated wells, and incubated for 30 min or more.
At this stage, the blocked parental cells were divided into the required number of aliquots (500 μl aliquot/library). The phage supernatants were added from the integrin-preadsorption step. Preadsorption against the parental cells was carried out for 30 min or more with gentle rocking. The blocked transfected cells were divided into the required number of aliquots (500 μl aliquot per library). The transfected cells were pelleted, and the supernatant was discarded. The phage supernatants from the two preadsorption steps were added, and cells were incubated with gentle rocking for 2 h or more. Cells were washed 6-8× with PBST at 5 min intervals. Each wash was performed by gently pipetting the cells up and down, and cells were centrifuged at low speed. To recover binding phage from the washed cell pellets, 500 μl 6M urea, pH 3.0 was added for 15 min. This was neutralized with 10 μl 2 M Tris (not adjusted for pH). The phage in the eluate were titered and arnplified by standard procedures (NEB protocol for PhD phage libraries). In some cases, the eluate was viscous due to the presence of chromosomal DNA.
Standard procedures were used. Phage in eluates were infected into E. coli host strain ER2738 (New England Biolabs) for all M13KE-based libraries, and cells were plated for plaques. Colonies were grown in liquid medium and analyzed by standard sequencing procedures.

T1 sequence (Q9H1C0 whole entry): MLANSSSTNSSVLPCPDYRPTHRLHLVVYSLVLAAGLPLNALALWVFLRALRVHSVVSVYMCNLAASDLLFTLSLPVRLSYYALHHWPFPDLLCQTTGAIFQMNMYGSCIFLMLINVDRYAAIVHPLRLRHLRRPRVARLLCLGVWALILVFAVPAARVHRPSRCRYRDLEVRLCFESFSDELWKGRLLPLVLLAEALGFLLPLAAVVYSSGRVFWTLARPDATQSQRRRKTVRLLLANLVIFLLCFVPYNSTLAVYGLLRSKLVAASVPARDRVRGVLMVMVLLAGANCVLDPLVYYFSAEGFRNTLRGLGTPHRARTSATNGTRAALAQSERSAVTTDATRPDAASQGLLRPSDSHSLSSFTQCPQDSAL

TTPHRVWNLPLEAQQ [SEQ ID NO 46]: binds.

NHDNTKKVWILA [SEQ ID NO 26]: binds.

HLKVWEVRSPGP [SEQ ID NO 20]: binds.

KLWILADNFTNR [SEQ ID NO 35]: binds.

KVVDSNHKVWLVSQT [SEQ ID NO 25]: binds.

INSPHELKKLWLLPP [SEQ ID NO 36]: binds.

KLWTIPSNDYPP [SEQ ID NO 38]: binds.

FPHKLWVLPVKT [SEQ ID NO 37]: binds.

NAKLWQIPAIPH [SEQ ID NO 42]: binds.

NAKVWTVPSKPP [SEQ ID NO 21]: binds.

KVWSLDISAPQH [SEQ ID NO 23]: binds.

ADVLHATPSEKVWLL [SEQ ID NO 24]: binds.

TSTPHRVWQLPV [SEQ ID NO 45]: binds.

KLWIPHTSQPFL [SEQ ID NO 40]: binds.

TGQTKIWYPHST [SEQ ID NO 18]: binds.

KVWIPTSTWLQT [SEQ ID NO 22]: binds.

KLWDITAPLPKP [SEQ ID NO 41]: binds.

B1: SEQ ID NO 17 (peptide)
peptide: LEAKIWVVPAPS
notes: Selected from random M13KE phage-display libraries
B1: binds.

VYSKVWLLPAGQ [SEQ ID NO 19]: binds.

KLWVPQNRPELV [SEQ ID NO 43]: binds.
